Experimental data from article PMC6060420, “Persulfide Dioxygenase From Acidithiobacillus caldus: Variable Roles of Cysteine Residues and Hydrogen Bond Networks of the Active Site” (Frontiers in Microbiology, 2018).

Columns and labels:
AcPDO = target: T1, AcPDO (Acidithiobacillus caldus, UniProt A0A2P9DTT9); test: MALDI-TOF MS of tryptic peptides; format: binding; conditions: covalent; cysteine-GSH adducts at C87, C224, C137 after […] min with […] GSSH, pH […]
T1 construct: gene pdo

[1] = target: persulfide dioxygenase from Acidithiobacillus caldus C-SH12 (AcPDO) (Acidithiobacillus caldus C-SH12); test: SDS-PAGE with Western blot; 10% acrylamide Tris-tricine SDS gel of purified AcPDO, detection with HRP-conjugated anti-Strep-tag antibody
[2] = target: persulfide dioxygenase from Acidithiobacillus caldus C-SH12 (AcPDO) (Acidithiobacillus caldus C-SH12); test: native gel or EMSA; gel of urea-treated AcPDO (Supplementary Figure S6B), urea up to 8 M; 54-kDa dimer band
[3] = target: persulfide dioxygenase from Acidithiobacillus caldus C-SH12 (AcPDO) (Acidithiobacillus caldus C-SH12); test: SEC; gel permeation chromatography, Superose 6 HR 10/30, previously frozen AcPDO, 2 M guanidinium chloride in 150 mM Tris/HCl pH 8, after 1 h at 25°C, 0.5 ml/min; tetramer to dimers
[4] = target: persulfide dioxygenase from Acidithiobacillus caldus C-SH12 (AcPDO) (Acidithiobacillus caldus C-SH12); test: SEC; gel permeation chromatography, Superose 6 10/300 on an Äkta system, freshly prepared AcPDO (0.5 mg protein); standards cytochrome c, conalbumin, aldolase, catalase

T1 sequence (A0A2P9DTT9 1-235 limits assumed): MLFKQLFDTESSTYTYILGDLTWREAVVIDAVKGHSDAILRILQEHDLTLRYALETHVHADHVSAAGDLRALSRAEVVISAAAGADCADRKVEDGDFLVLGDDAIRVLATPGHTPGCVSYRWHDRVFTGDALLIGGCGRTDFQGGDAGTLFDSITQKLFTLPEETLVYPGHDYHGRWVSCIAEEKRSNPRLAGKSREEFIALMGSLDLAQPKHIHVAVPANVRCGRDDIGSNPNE

| stoichiometry N [1] | stoichiometry N [2] | stoichiometry N [3] | stoichiometry N [4] | Molecule | MALDI-TOF MS of tryptic peptides (AcPDO) |
| --- | --- | --- | --- | --- | --- |
| – | – | – | – | N[C@@H](CCC(=O)N[C@@H](CSS)C(=O)NCC(=O)O)C(=O)O [GSSH] | cysteine-GSH adducts were identified after the enzyme was incubated with GSSH |
| 2 | 2 | 2 | 3.7 subunits | persulfide dioxygenase from Acidithiobacillus caldus C-SH12 (AcPDO) (enzyme) | – |
